Laboratory results reported in the nanobody polyreactivity screen of Harvey et al. (2022).

Assay: yeast display, Sf9 membrane polyspecificity reagent, FACS + sequencing; frameworks hold sequencing errors
Method in brief: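 A nanobody's polyreactivity label depends on the gate it was sorted from. Yeast display cells were stained with 10% biotinylated, detergent-solubilized Sf9 membrane reagent for 1 hour at 4 °C, enriched on streptavidin microbeads and sorted by FACS. The low and high (top ~1%) gates were set on anti-HA fluorescence for expression and streptavidin fluorescence for reagent binding.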

Sequence | polyreactivity (PSR sort gate)
QVQLVESRGGLVQAGGSLLLSFAASGRTYPYNAMGWYIQAPRKERELVAGISSGGTTTYADSVKGRFTISRDNAKNTVYLQMNSLKPEDTAVYYCAATVIIFDHSLPGWDDYDYWGQGTQVTVSS | low polyreactivity
QVQLVESRGGLVQAGGSLPLSCAASGFIFTSYAMGWYRQAHGKEREFVAAISGSGGSTYYADSVKGRFTISRDNAKNTVYLQMNSLKPEDTAVYYCAAESWVGYYLYWYDYWGQGTQVTVSS | high polyreactivity
QVQLVESRGGLVQAGGSLRLRCAASGFIFGYNVMGWYRQAPGKERELVASISTGGRTYYADSVKGRFTISRDNAKNTVYLQMNSLKPEDTAVYYCAARYRSYSYLYYSWGQGTQVTVSS | high polyreactivity
QVQLVESRGGLVQAGGSLRLSCAASGFIFFQYAMGWYRQAPGTERELVAAISGSGVTTYYADSVKGRFTISRDNAKNTVYLQMNSLKPEDTAVYYCNAALRWKYDWGQGTQVTVSS | low polyreactivity
QVQLVESRGGLVQAGGSLRLSCAASGFIFGYYALGWYRQAPGKEWELVAAITNGGRTYYADSVKGRFTISRDNAKNTVYLQMISLKPEDTAVYYCAARPSWWSALFDSWGQGTQVTVSS | low polyreactivity
QVQLVESRGGLVQAGGSLRLSCAASGFIFSRYGMGWYRQAPGKERELVAAISRSGGSTYYADSVKGRFTISRDNAKNTVYVQMNSLKPEDTAVYYCATAYSWRNADWFAYSYDYWGQGTQVTVSS | low polyreactivity
QVQLVESRGGLVQAGGSLRLSCAASGFTFDNYGMGWYSQAPGKERELVAAISKSGTSTYYADSGKGRFTITRDNAKNTVYLQMNSLNPEDTAVYYCSGALPGYGDYYYWGQGTQVTVSS | high polyreactivity
QVQLVESRGGLVQAGGSLRLSCAASGFTFFVYPMGWYRQAAGKERELVAVITSGGTTNYADSVKGRFTISRDNAKNTVYLQMNSLIPEDTAVYYCATDNGGIPKYVPYDYWGQGTQGTVSS | high polyreactivity
QVQLVESRGGLVQAGGSLRLSCAASGFTFVGYAMGWYRQAPGKERALVAAISRRGTPTYYADSVKGRFTISRDNAKNTVYLQMNSLKPEDTAVYFCAASNGYQAVTYDYWGQGTQVTVSS | high polyreactivity
QVQLVESRGGLVQAGGSLRLSCAASGITFTIYAMGWYRQAPGKERELVAAITWTSDITHYADSVKGRFTISRDNAKNTVYLQMISLKPEDTAVYYCAATTWDEYDYWGQGTQVTVSS | high polyreactivity
QVQLVESRGGLVQAGGSLRLSCAASGITSRLNAMVWYRQAPGKERELVAGISRGGGTTYYADSVKGRFTISRDNAKNTVYLQMNSLKTEDTAVYYCAAAYRVRGGTYDSWGQGTQVTVSS | high polyreactivity
QVQLVESRGGLVQAGGSLRLSCAASGLTFVYYAMGWYRQAPGKERELVASIDYSGSSTYYADSVKGRFTISRDNAKNTVYLQMNSLKPEDTAVYYCAATDSGEYWGQGTQVTVSS | low polyreactivity
QVQLVESRGGLVQAGGSLRLSCAASGRIFNAYAMGWYRQAPGKERELVAAITVSGTRTYYADSVKGRFTISRDNAKNTVYLQMNSLKPEDTAVYYCAAEVVNYWYSYDYWGQGTQVTVSS | high polyreactivity
QVQLVESRGGLVQAGGSLRLSCAASGRILYVNDMGWYRQAPRKERELVAAISWRGGRTYYADSVKGRFTISRDNAKNTVYLQMNSLKPEDTAVYYCAARARGGYQRDYYWGQGTQVTVSS | high polyreactivity
QVQLVESRGGLVQAGGSLRLSCAASGRNFPINTMGWYRQAPGKERELVAAIRTSGSSTYADSVKGRFTISRDNAKNSVYLQMNSLKPEDTAVYYCNTKYPGRGYYWGQGTQVTVSS | high polyreactivity
QVQLVESRGGLVQAGGSLRLSCAASGRTFYSYAMGWSRQAPGKERELVAAITSSGGSTYYADSVKGRFTISRDNAKNTVYLQMNSLKPEDTAVYYCAAGKPYSSYWSWGYWTNLEDDYWGQGTQVTVSS | high polyreactivity
QVQLVESRGGLVQAGGSLRLSCAASGRTIINYAMGCYRQAPRKERELVAAITTGGRTNYADSVKGRFTISRDNAQNTVYLQMNSMKPEDTAVYYCNAVRYYRYYYWGQGTQVTVSS | low polyreactivity
QVQLVESRGGLVQAGGSLRLSCAASGSIFDSYAMGWYRQAPGKERELVADISSGGSTYYADSVKGRFTISRDNAKNTVYLQMNSLKPEDTAVYYCAAQYVYYFYGDEAFTDDYWGQGTQVTVSS | low polyreactivity
QVQLVESRGGLVQAGGSLRLSCAASGSIFGRNAMGWYRQAPGKERELVAAIRSGDSTNYADSVKGRFTISRDNAKNTVYLQMNSLKPEDTAVYYCAADYIFWHRRDKKSVVMDYWGQGTQVTVSS | low polyreactivity
QVQLVESRGGLVQAGGSLRLSCAASGSIFLVYAMGWYRQAPGKERELVAAIDSSGGSTYYADSVKGRFTISRDNAKNTVYLQMNSLKREDTAVYYCAVYIRYPWSGRYDYWGQGTQVTVSS | high polyreactivity
QVQLVESRGGLVQAGGSLRLSCAASGSIFNANAMGWYRQAPGKEREIVAAITRAGGGTYYADSVKGRFTISRVNAKNTVYLQMNRLKPEDTAVYYCAREVFFYASTGQTYGYWGQGTQVTVSS | high polyreactivity
QVQLVESRGGLVQAGGSLRLSCAASGSIFTSYAMGWYRQAPGKERELVAAINGSGGSTFYADSVKGRFTISRDNAKNTVYLQMNSLKPQDTAVYYCNTGGPRGTTYDYWGQGTQVTVSS | low polyreactivity

Sequence | polyreactivity (PSR sort gate)
QVQLVESRGGLVQAGGSLRLSCAASGSILVRYAMGWDRQAPGKERELVAAITGTSGGTYYADSVKGRFTISRDNAKNTVYLQMNSLKPEDTAVYYCNADGGSGAYLDLTITDYDYWGQGTQVTVSS | low polyreactivity
QVQLVESRGGLVQAGGSLRLSCAASGSNFYRNALGWYRQAPGKERELVAAISSDGSTNYADSVKGRFTISRDNAKNTVYLQLNSLKPEDTAVYSCAPHDRWHHRSLPYEYWGQGTQVTVSS | low polyreactivity
QVQLVESRGGLVQAGGSLRLSCAASGYIFSYNAMGCYRQAPGKERELVAATSSRGGSTYYADSVKGRFTISRDNAKNPDYLQMNSLKPEDTAVYFCAVSSRRVDTEPYDYWGQGTQVTVSS | high polyreactivity
QVQLVESRGGLVQAGGSLRLSCAASRRIFVRNAIGWYIQEPGKERELVAAISSSGGPTYYADSVKGRFTISRDNAKNTVYLQMNSLKPEDTAVYYCAASSSNKEYDYWGQGTQVTVSS | high polyreactivity
QVQLVESRGGLVQAGGSLRLSCAPSGIIFVRYAMGWYRQAPGKETELVAAISSSGGSTYYADSVKGRFTISRDNAKKTVYLQMNSLKPEDTAVYYCNARHRQWARGYWGQGTQVTVSS | high polyreactivity
QVQLVESRGGLVQAGGSLRLSCASSGSIFFSNAMGWYRQAPGKERELVAAISKSGGSTYYADSVKGRFTISRDNAKNTVYLQMNSLKPEDTAVYYCAAERTFLYWAYDYWGQGTQVTVSS | high polyreactivity
QVQLVESRGGLVQAGGSLRLSCASSGSTFVPNAMGWYRQAPGNERELDAAITFSGGTTYYADSVKGRFTISRDNAKNTVYFQMNSLKPEDTAVYDCAADYFSNLWWSGHAWRYYYWGQGTQVTVSS | low polyreactivity
QVQLVESRGGLVQAGGSLRLSCATSGRIFAKYAMGWYRQAPGKESELVAAITTTGRTYYADSVKGRFTISRDNAKNTVYLQMNSLKPEDTAVYYCAVGYHAPKVSTSDARYDYWGQGTQVTVSS | low polyreactivity
QVQLVESRGGLVQAGGSLRLSCDASGIIFVKYAMGWYRQAPGKERELVAAITSGGSTYYADSVKVRFTISRDNAKNTVYLQMNSLKPEDTAVYYCNADSWFLYYFTINGYWGQGTQVTVSS | high polyreactivity
QVQLVESRGGLVQAGGSLRLSFAASGSIFTPYTMGWDRPAPGKERELVAAITGSAGSTYYADSVKGRFTISRDNAKNTVYLQMNSLKPEDTAVYYCAAAVWGVYQWYYYWGQGTQVTVSS | high polyreactivity
QVQLVESRGGLVQAGGSLRLSFPASGFTQEFYAMGWYRQAPGKERELVASISSGGRTNYADSVKGRFTISRDNAKYTVYLQMNSLKPEDTAVYYFAAEYRSWGRYRYRFNYWGQGTQVTVSS | high polyreactivity
QVQLVESRGGLVQAGGSLRLSSAASGSTYGVNPMGWYRQAPGKERELVAAISVSGGRTYYADSVKGRFTISRDNAKNTVDLQMNSLKPEDTAVYYCNADGLYAYVWYDYWGQGTQVSVSS | low polyreactivity
QVQLVESRGGLVQAGGSLRLSYAASGITFRKYAIGWYRQAPGKESELVAAISWSGGSTYYADSVKGGFTISRDNAMNTVYLQMNSMKPEDTAVYYCAAPHWSPYDYWGQGTQVTVSS | high polyreactivity
QVQLVESRGGLVQARGSLRLSCAASGSTFVYYALGWYRTAPGTERELVAAITQRGGNTYYADSVKGRFTISRDNAKNTVYLQMNSLKPVDTAVYYCATKSYSQYFKFYYWGQGTQVTVSS | high polyreactivity
QVQLVESRGGLVQEVGSLRLSCAASGRIFYRYYMGWYRQAPGKERELVASITRSGITHYADSVKGRFTISRDNATNTVYLQMNSLKPEDTAVYYCAVDLLRRGFPTVVTTYDYWGQGTQVTVSS | high polyreactivity
QVQLVESRGGLVQSGGSLRLSCAASGSIFEIYHMGRYRQAPGNERELVASIRTSGGSTYYADSVKGRFTISRDNAKNTVYLQMNSLKPEDTAVYYCAAVGRSYYGHDYWGQGTQVTVSS | low polyreactivity
QVQLVESRVGLVQAGGSLRLSCAASGRIFHYYAMGWYRQAPGKERELVAAINASGTSTYYADSVKGRFTISRDNAKNTVYLQMNSLKPEDTAVYYCAAQPYYRGGSYSYTRNSKLIYWGQGTQVTVSS | high polyreactivity
QVQLVESRWRFVQAGGSLRLSCAASGSIFADYAMGWYRQAPGKERELVAAITFSGGSTYYADSVKGRFTISRDNAKNTVYLQMNSLKPEDTAVYYCASRWRYRYYSWGQGTQVTVSS | high polyreactivity
QVQLVESSGGLVQAGGSLSLICAASGIIFYGYAMGWYRQAPGKERELVASIRSGSNTYYADSVKGRFTISRDNAKNTVYLQMNSLKPEDTAFYSCAARVVPATFRFIRYPHPYYYWGQGTQVTVSS | low polyreactivity
QVQLVESVGALVQAGGSLRLSCAASGSIFIPYAMGWYRQAPGKEWEFVATITFGAASTYYADSVKGRFTISRDNAKNTVYLQMNSLKPEDTAVYYCNAEGYVYPYYREGDYWGQGTQVTVSS | low polyreactivity
QVQLVESVGCLVQAGGSLRLSCAASGFIFGSYTMGWYRPAPGKESELVAAISSSGGNTYYADSVKGRFTISRDHAKNTVYLQMNSLKPEDTAVYYCAVDYIYDDAYNYWGQGTQVTVSS | high polyreactivity
